The values below come from the supplement of paper PMC9170038.

This data set concerns MS2 coat protein. Kind of data set: apparent KD of MS2 coat protein; higher = weaker reporter binding. The conditions noted are these: Eterna round: R107. On the procedure: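 RNA-MaP round R107: designed RNA switches with theophylline, tryptophan, arginine or FMN aptamers are transcribed on-chip within common flanks. They are titrated with SNAP-549-labelled MS2 coat protein in RNA-MaP buffer (100 mM Tris pH 7.5, 80 mM KCl, 4 mM MgCl2), without ligand or with the indicated ligand. Median apparent KD per design.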

Where [1] appears, read: input ligand: theophylline 20 uM.
[2] abbreviates: input ligand: theophylline 2 mM.
Where [3] appears, read: input ligand: tryptophan 2.4 mM.

For the sequence “AACAUGAGGAUCACCCAUGUCGGGCCGGUGCGAGGACCGGUACGGCCGCCACUCGAGACAUGAGGAUCACCCAUGUUGUGCGUGA [Exclusion Tryptophan A GF23]”, the “apparent KD of MS2 coat protein” value is, setting by setting: (input ligand: arginine 13.2 mM) 52.6 nM; (input ligand: none) 162 nM; under setting [1], 195 nM; under setting [2], 221 nM; under setting [3], 138 nM.
For “AACAUGAGGAUCACCCAUGUCUGAACUGAAGGAGCGCUAAAUAAGGCAGGUAGGUCGCGGAAUUUUGUGUAUAUAUAUAUAUGGG [9.G]”, the “apparent KD of MS2 coat protein” value came to 17.6 nM (input ligand: arginine 13.2 mM); 27.1 nM (input ligand: none); 34.2 nM under setting [1]; 25 nM under setting [2]; 24.3 nM under setting [3].
Turning to “AACAUGAGGAUCACCCAUGUGUCCUCGAAACGAGGACCGGUACGGCCGCCACUCGAAAGGUGUUGACGAAAAGUCAGCACCAAAA [Mat - Exclusion - Trytophan A - D15]”, the “apparent KD of MS2 coat protein” value by setting is: (input ligand: arginine 13.2 mM) 122 nM; under setting [1], 351 nM; under setting [2], 412 nM.
The matching figures for “AACAUGAGGAUCACCCAUGUGUCCUCGAAACGAGGACCGGUACGGCCGCCACUCGAAAUAAGCUGUUGACGAAAAGUCAGCAGCA [Mat - Exclusion - Trytophan A - D20]”: 128 nM, 300 nM and 345 nM.
Regarding “AACAUGAGGAUCACCCAUGUGUCCUCGAAACGAGGACCGGUACGGCCGCCACUCGAAUAAGCUGUUGACGAAAAGUCAGCAGCAA [Mat - Exclusion - Trytophan A - D19]”, the “apparent KD of MS2 coat protein” value runs as follows: (input ligand: arginine 13.2 mM) 91 nM; under setting [1], 327 nM; under setting [2], 314 nM.
Taken in the same sequence, the figures for “AACAUGAGGAUCACCCAUGUUCUCGUGUACCGAGGACCGGUACGGCCGCCACUCGGUUCUCGCGAGGAUGGUCAAAGACUAUCCA [Omei Trp A SS B v5]” were 22.6 nM, 25.1 nM and 24.7 nM.
As to “AACAUGAGGGCGGCCGCCACUCCAUGAACAUGAGGAUCACCCAUGUUGAGGAUCACCCAUGUUGUGAGGACCGGGCCACAUGAGG [Exclusion Tryptophan B 3]”, the “apparent KD of MS2 coat protein” value by setting is: (input ligand: arginine 13.2 mM) 31.7 nM; (input ligand: none) 38 nM; under setting [1], 66.1 nM; under setting [2], 59.8 nM; under setting [3], 89.6 nM.
As for “AACGGUCGUACCGGAAUGAUCCUCAUGUAACGAGGACCGGUACGGCCGCCACUCGAUAACAUGAGGAUCACCCAUGUAAUAAUAA [|T'-M'-Trp-Ms2|_Design11]”, the “apparent KD of MS2 coat protein” value was 18.8 nM (input ligand: arginine 13.2 mM), 17 nM under setting [1] and 17.2 nM under setting [2].
On to “AACGUGAACGUGGUAUACCCGUGUGCCGAAGGAGCGCCCGAAAGGGCAGGUAGGUCGCGGACGACAUGAGGAUCACCCAUGUUUG”, for which the “apparent KD of MS2 coat protein” value reads like this: (input ligand: arginine 13.2 mM) 42 nM; (input ligand: none) 73.5 nM; under setting [1], 97.2 nM; under setting [2], 87.5 nM; under setting [3], 57.7 nM.
For “AACUGGAAAAGUGAUACCAGAGACAUGAGGAUCACCCAUGUACAUGAGGAUCACCCAUGUCUCCCUUGGCAGCACAAAAGGGAGA [Exclusion Theophylline B Gf11]”, the “apparent KD of MS2 coat protein” value turned out to be 16.1 nM (input ligand: arginine 13.2 mM), 37.6 nM under setting [1] and 24.5 nM under setting [3].
As for “AAGACGCCGGGAAGGAGCGCAUCCAAACCACACAUGAGGAUCACCCAUGUAUAAAUAUGCAUGCAGGUAGGUCGCCCGAUGUCCC [Orbemative]”, the “apparent KD of MS2 coat protein” value by setting is: (input ligand: arginine 13.2 mM) 32.4 nM; (input ligand: none) 31.6 nM; under setting [1], 48.8 nM; under setting [2], 42.6 nM; under setting [3], 36.5 nM.
On to “AAGGUGAUCCCAGAUACCAGCUUAACAUGAGGAUCACCCAUGUUUGGGACGAAAGUCCCGGGCCCUUGGCAGCUGGGUUGCCAAG [SSTheo B #18]”, for which the “apparent KD of MS2 coat protein” value is, setting by setting: (input ligand: arginine 13.2 mM) 61.9 nM; under setting [1], 402 nM; under setting [3], 174 nM.
Consider “AAGUGGCACGGAAGGAGCGAGUUUACCUAGAUAACAUGAGGAUCACCCAUGUAUAAUGGGACUCAGGUAGGUCGCCGUUGUCACU [#29 Same State - Arginine B]”, for which the “apparent KD of MS2 coat protein” value worked out at 24.9 nM (input ligand: arginine 13.2 mM); 34.8 nM (input ligand: none); 51 nM under setting [1]; 32.8 nM under setting [2]; 30.7 nM under setting [3].
For the sequence “AAUAAAUCACAUGAGGAUCACCCAUGUGAUACCAGCCUGGAAACAGGCCCUUGGCAGCACAUGAGGAUCACCCAUGUGCUAAAUA [TheoAX 1 #DoubleMS2 #OpenEnded]”, the “apparent KD of MS2 coat protein” value (input ligand: arginine 13.2 mM) was 6.79 nM, the “apparent KD of MS2 coat protein” value under setting [1] stood at 8.81 nM and the “apparent KD of MS2 coat protein” value under setting [3] came to 8.43 nM.
The matching figures for “AAUAACAUGAGGAUCACCCAUGUAAAAGAUACCAGAGUGAUGAUCCUCCCUUGGCAGCUUAAUAACGCUAUUGGAAACAAUAGCG [Mat - Same State Theophlline A - Mod of Eli - D7]”: 34.9 nM, 158 nM and 59 nM.
The matching figures for “AAUAACAUGAGGAUCACCCAUGUAAAAGAUACCAGAUGCAUGAUGAUCCCUUGGCAGCUUAACGCUGAUUGAUUACAAUCAGCGA”: 36.5 nM, 128 nM and 26.4 nM.
Turning to “AAUACAUGAGGAUCACCCAUGUAAGCUGAAGGAGCGCUGGAAACAGCAGGUAGGUCGCAGCUGCGACCUUGGUGAUCUAGGUCGC [(M1)-(M2)-(Arg1)-(Arg2)-(A)'-(M)'-(A)''_Design7]”, the “apparent KD of MS2 coat protein” value is, setting by setting: (input ligand: arginine 13.2 mM) 17.5 nM; (input ligand: none) 36.6 nM; under setting [1], 35.8 nM; under setting [2], 46.7 nM; under setting [3], 24.3 nM.
For the sequence “AAUACCGGAUCGGCCGCCACUGGUUGGCCCUGUGUACAUGAGGAUCACCCAUGUCCAUCCCAAACCAGGACCGGGAUCUUUGUGC [Ededmate]”, the “apparent KD of MS2 coat protein” value is 11.7 nM (input ligand: arginine 13.2 mM), 15.8 nM under setting [1] and 13.7 nM under setting [2].
